Legend:
[1] = target: T1, wild-type mouse PD-L1 mCherry (full-length mouse PD-L1 with C-terminal mCherry, on HEK 293 cells) (mouse, UniProt Q9EP73 19-290); assay: cell microarray challenged with Fc fusion protein
T1 construct: whole, on cells; also called wild type PD-L1; mPD-L1 mCherry; not shown: C-terminal mCherry (Clontech N1 mCherry vector)

[2] = target: T2, PD-L1 mutant D122A (mouse PD-L1-mCherry fusion) (mouse, UniProt Q9EP73 19-290); assay: microbead FACS binding assay: protein A microbeads loaded with Fc fusion, HEK 293 cells displaying the PD-L1-mCherry mutant
T2 construct: whole, on cells; not shown: C-terminal mCherry (Clontech N1 mCherry vector)
T2 sequence (Q9EP73 19-290 D122A): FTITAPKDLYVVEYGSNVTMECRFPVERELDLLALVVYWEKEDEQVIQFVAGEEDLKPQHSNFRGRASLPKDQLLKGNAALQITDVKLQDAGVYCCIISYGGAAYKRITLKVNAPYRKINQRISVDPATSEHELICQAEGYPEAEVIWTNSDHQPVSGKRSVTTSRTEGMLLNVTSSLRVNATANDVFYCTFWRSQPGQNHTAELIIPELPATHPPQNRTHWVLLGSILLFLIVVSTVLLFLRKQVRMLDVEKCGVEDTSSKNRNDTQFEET
Procedure: (§1) PD-L1 mCherry mutant constructs were transiently transfected into HEK 293S cells and subsequently challenged with protein A microbeads (Milltenyi) pre-saturated with a 4:1 mixture of PD-1 Fc-fusion and FITC-Fc protein. A total Fc protein to bead ratio of 5 ug/10 uL microbeads was utilized on the basis of a previous report from Genentech (16). The FITC-Fc served to make the otherwise non-fluorescent microbeads show green fluorescence. For each titration experiment, 500 μL of protein A microbeads were loaded with a mixture of 10 μg fluorescein isothiocyanate (FITC)-Fc and 40 μg of either PD-1-Fc or B7-1-Fc protein in a total volume of 5 mL 1× phosphate buffered saline (PBS). The beads were incubated overnight (˜16 hours) at 4° C. Loaded beads were stored for up to two weeks prior to use. Initial experiments determined that 75 μL of the loaded beads were sufficient to saturate 150,000 cells transfected with wild type PD-L1, (transfection efficiency being consistently 60-70%). For titration experiments, sets of wild type and mutant PD-L1 constructs were transfected in 24-well tissue culture plates containing 1 mL of suspension HEK-293 cells. Three days post transfection cells were counted, diluted to 1×10⁶ cell/mL with 1×PBS with 2% BSA. 150K cells (150 μL) were transferred to Eppendorf tubes, and 75 μL of loaded microbeads added along with an additional 100 μL 1×PBS with 2% bovine serum albumin (BSA). Reactions were mixed end over end for 1 hour at 4° C., 4′,6-diamidino-2-phenylindole (DAPI) was added and samples were immediately analyzed by flow cytometry on a BD Aria III cytometer. Data were analyzed by gating first for live cells (DAPI negative) then for mCherry positive cells (PD-L1 expression). The percentage of mCherry positive cells that were FITC positive (microbeads bound) was used as “percent bound”. For each experiment, the percent bound was normalized to wild type binding.
(§2) These cells were probed by flow cytometry for their ability to bind either FITC-loaded microbeads decorated with wild type PD-1 Ig-fusion or wild type B7-1 Ig-fusion proteins (FIG. 7B).

[3] = target: T3, PD-L1 mutant Y123R (mouse PD-L1-mCherry fusion) (mouse, UniProt Q9EP73 19-290); assay: as above
T3 construct: whole, on cells; not shown: C-terminal mCherry (Clontech N1 mCherry vector)
T3 sequence (Q9EP73 19-290 Y123R): as the sequence (Q9EP73 19-290 D122A) above, with A104D, Y105R counted along it
Procedure: as §1, §2

[4] = target: T4, PD-L1 mutant Y123A (mouse PD-L1-mCherry fusion) (mouse, UniProt Q9EP73 19-290); assay: as above
T4 construct: whole, on cells; not shown: C-terminal mCherry (Clontech N1 mCherry vector)
T4 sequence (Q9EP73 19-290 Y123A): as the sequence (Q9EP73 19-290 D122A) above, with A104D, Y105A counted along it
Procedure: as §1, §2

[5] = target: T5, PD-L1 mutant K124A (mouse PD-L1-mCherry fusion) (mouse, UniProt Q9EP73 19-290); assay: as above
T5 construct: whole, on cells; not shown: C-terminal mCherry (Clontech N1 mCherry vector)
T5 sequence (Q9EP73 19-290 K124A): as the sequence (Q9EP73 19-290 D122A) above, with A104D, K106A counted along it
Procedure: as §1, §2

[6] = target: T6, PD-L1 mutant K124D (mouse PD-L1-mCherry fusion) (mouse, UniProt Q9EP73 19-290); assay: as above
T6 construct: whole, on cells; not shown: C-terminal mCherry (Clontech N1 mCherry vector)
T6 sequence (Q9EP73 19-290 K124D): as the sequence (Q9EP73 19-290 D122A) above, with A104D, K106D counted along it
Procedure: as §1, §2

[7] = target: T7, PD-L1 mutant R125A (mouse PD-L1-mCherry fusion) (mouse, UniProt Q9EP73 19-290); assay: as above
T7 construct: whole, on cells; not shown: C-terminal mCherry (Clontech N1 mCherry vector)
T7 sequence (Q9EP73 19-290 R125A): as the sequence (Q9EP73 19-290 D122A) above, with A104D, R107A counted along it
Procedure: as §1, §2

[8] = target: T8, PD-L1 mutant R125D (mouse PD-L1-mCherry fusion) (mouse, UniProt Q9EP73 19-290); assay: as above
T8 construct: whole, on cells; not shown: C-terminal mCherry (Clontech N1 mCherry vector)
T8 sequence (Q9EP73 19-290 R125D): as the sequence (Q9EP73 19-290 D122A) above, with A104D, R107D counted along it
Procedure: as §1, §2

[9] = target: T9, PD-L1 mutant L53D (mouse PD-L1-mCherry fusion) (mouse, UniProt Q9EP73 19-290); assay: as above
T9 construct: whole, on cells; not shown: C-terminal mCherry (Clontech N1 mCherry vector)
T9 sequence (Q9EP73 19-290 L53D): as the sequence (Q9EP73 19-290 D122A) above, with L35D, A104D counted along it
Procedure: as §1, §2

[10] = target: T10, PD-L1 mutant L53R (mouse PD-L1-mCherry fusion) (mouse, UniProt Q9EP73 19-290); assay: as above
T10 construct: whole, on cells; not shown: C-terminal mCherry (Clontech N1 mCherry vector)
T10 sequence (Q9EP73 19-290 L53R): as the sequence (Q9EP73 19-290 D122A) above, with L35R, A104D counted along it
Procedure: as §1, §2

[11] = target: T11, PD-L1 mutant I115D (mouse PD-L1-mCherry fusion) (mouse, UniProt Q9EP73 19-290); assay: as above
T11 construct: whole, on cells; not shown: C-terminal mCherry (Clontech N1 mCherry vector)
T11 sequence (Q9EP73 19-290 I115D): as the sequence (Q9EP73 19-290 D122A) above, with I97D, A104D counted along it
Procedure: as §1, §2

[12] = target: T12, PD-L1 mutant I116R (mouse PD-L1-mCherry fusion) (mouse, UniProt Q9EP73 19-290); assay: as above
T12 construct: whole, on cells; not shown: C-terminal mCherry (Clontech N1 mCherry vector)
T12 sequence (Q9EP73 19-290 I116R): as the sequence (Q9EP73 19-290 D122A) above, with I98R, A104D counted along it
Procedure: as §1, §2

[13] = target: T13, PD-L1 mutant G119R (mouse PD-L1-mCherry fusion) (mouse, UniProt Q9EP73 19-290); assay: as above
T13 construct: whole, on cells; not shown: C-terminal mCherry (Clontech N1 mCherry vector)
T13 sequence (Q9EP73 19-290 G119R): as the sequence (Q9EP73 19-290 D122A) above, with G101R, A104D counted along it
Procedure: as §1, §2

[14] = target: T14, PD-L1 mutant G120A (mouse PD-L1-mCherry fusion) (mouse, UniProt Q9EP73 19-290); assay: as above
T14 construct: whole, on cells; not shown: C-terminal mCherry (Clontech N1 mCherry vector)
T14 sequence (Q9EP73 19-290 G120A): as the sequence (Q9EP73 19-290 D122A) above, with G102A, A104D counted along it
Procedure: as §1, §2

[15] = target: T15, PD-L1 mutant G120R (mouse PD-L1-mCherry fusion) (mouse, UniProt Q9EP73 19-290); assay: as above
T15 construct: whole, on cells; not shown: C-terminal mCherry (Clontech N1 mCherry vector)
T15 sequence (Q9EP73 19-290 G120R): as the sequence (Q9EP73 19-290 D122A) above, with G102R, A104D counted along it
Procedure: as §1, §2

[16] = target: T16, PD-L1 mutant A121D (mouse PD-L1-mCherry fusion) (mouse, UniProt Q9EP73 19-290); assay: as above
T16 construct: whole, on cells; not shown: C-terminal mCherry (Clontech N1 mCherry vector)
T16 sequence (Q9EP73 19-290 A121D): as the sequence (Q9EP73 19-290 D122A) above, with A103D, A104D counted along it
Procedure: as §1, §2

[17] = target: T17, PD-L1 mutant A121R (mouse PD-L1-mCherry fusion) (mouse, UniProt Q9EP73 19-290); assay: as above
T17 construct: whole, on cells; not shown: C-terminal mCherry (Clontech N1 mCherry vector)
T17 sequence (Q9EP73 19-290 A121R): as the sequence (Q9EP73 19-290 D122A) above, with A103R, A104D counted along it
Procedure: as §1, §2

[18] = target: T18, PD-L1 mutant D122R (mouse PD-L1-mCherry fusion) (mouse, UniProt Q9EP73 19-290); assay: as above
T18 construct: whole, on cells; not shown: C-terminal mCherry (Clontech N1 mCherry vector)
T18 sequence (Q9EP73 19-290 D122R): as the sequence (Q9EP73 19-290 D122A) above, with A104R counted along it
Procedure: as §1, §2

[19] = target: T1, wild-type mouse PD-L1 mCherry …; assay: FACS competition: mPD-1 mIgG2a titrated (0.01-250 nM dimer) against 5 nM mB7-1 hIgG1 (competitor) on HEK 293 cells expressing mPD-L1 mCherry; one-site competition fit, three experiments
From the text: A mB7-1 hIgG1 Fc fusion construct was cloned which used the same erythropoietin (EPO) leader, mB7-1 ecto domain boundaries and linker sequence as the original mIgG2a construct described above. This construct was transiently expressed in HEK 293 cells and purified as described above for the other Fc fusion proteins used. For the completion experiment, HEK 293 suspension cells were transiently transfected with wild-type mPD-L1 mCherry. Three days post transfection transfected cells were counted and diluted to 1×10⁶ cells/mL. B7-1 hIgG1 fusion protein was added to 100,000 transfected cells at a final concentration of 5 nM dimer, in either the absence or presence of increasing concentrations of PD-1 mIgG2a protein (0.01-250 nM dimer). Parallel experiments were carried out in which purified mIgG2a isotype control was titrated at equivalent molar concentrations. Protein binding was carried out at 22° C. shaking at 900 rpm on a 96-well plate shaker for 1 hour. […] Cells were subsequently washed two more times with 1×PBS with 0.2% BSA. […] Competition data was normalized to 5 nM B7-1 binding in the absence of mPD-1 and plotted as a function of log [mPD-1]. Average data from three independent experiments was fit using a one-site competition model equation Y=min+(max−min)/(1+10^{x-log EC50}).
A) Cartoon depiction of the competition assay. […]

T1 sequence (Q9EP73 19-290): as the sequence (Q9EP73 19-290 D122A) above, with A104D counted along it

B1: wild-type mB7-1 Fc (residues D37-K245, mIgG2a-10×His) (Fc fusion)
chain: DVDEQLSKSVKDKVLLPCRYNSPHEDESEDRIYWQKHDKVVLSVIAGKLKVWPEYKNRTLYDNTTYSLIILGLVLSDRGTYSCVVQKKERGTYEVKHLALVKLSIKADFSTPNITESGNPSADTKRITCFASGGFPKPRFSWLENGRELPGINTTISQDPESELYTISSQLDFNTTRNHTIKCLIKYGDAHVSEDFTWEKPPEDPPDSK
modifications: C-terminal mIgG2a Fc-10×His (dimerising carrier), not in the letters
notes: In the microbead assay it was loaded on protein A microbeads; also called B7-1 Fc-fusion; B7-1 Ig-fusion; not shown: the linker between ectodomain and Fc, the mouse IgG2a Fc and the 10xHis tag behind it
binding result [1]: binds
binding result [2]: binds
binding result [3]: binds
binding result [4]: binds
binding result [5]: binds
binding result [6]: binds
binding result [7]: binds
binding result [8]: binds
binding result [9]: no binding
binding result [10]: no binding
binding result [11]: no binding
binding result [12]: no binding
binding result [13]: no binding
binding result [14]: no binding
binding result [15]: no binding
binding result [16]: no binding
binding result [17]: no binding
binding result [18]: no binding

B2: wild-type mPD-1 Fc (residues L25-Q167, mIgG2a-10×His) (Fc fusion, mouse, not shown: a dimerising Fc or GST)
chain (part 1 of 2): LEVPNGPWRSLTFYPAWLTVSEGANATFTCSLSNWSEDLMLNWNRLSPSNQTEKQAAFCNGLSQPVQDARFQIIQLPNRHDFHMNILDTRRNDSGIYLCGAISLHPKAKIEESPGAELVVTERILETSTRYPSPSPKPEGRFQ
chain (part 2 of 2): HHHHHHHHHH
notes: range 25-167; In the microbead assay it was loaded on protein A microbeads; also called PD-1 Fc-fusion; PD-1 Ig-fusion
binding result [9]: no binding
binding result [10]: no binding
binding result [11]: no binding
binding result [12]: no binding
binding result [13]: no binding
binding result [14]: no binding
binding result [15]: no binding
binding result [16]: no binding
binding result [17]: no binding
binding result [18]: no binding
EC50 [19]: 8.3 nM
